Laboratory results published in publication PMC3511376.

Target: HIV-1 envelope glycoprotein gp120 (YU2) (HIV-1 (YU2)) (UniProt P35961)
Experiment: SPR; BIAcore 3000, CM4 chip; gp120YU2 amine-coupled (514 RU for the Lg-CRD chip, 838 RU for the Lg-ECD chip), BSA control flow cell; Langerin injected at 20 µl/min; running buffer 150 mM NaCl, 25 mM Tris pH 7.8, 4 mM CaCl2, 0.005% P20; regeneration with 50 mM EDTA; 1:1 Langmuir fit for Lg-CRD, EC50 from titration for Lg-ECD

Langerin carbohydrate-recognition domain (CRD) (domain or fragment)
Kd: 25 µM
